Each block holds one substance with its values, some of them ahead of it.
Tests used:
[1] = biological target: recombinant human IL17A/F dimer protein (SinoBiological, Inc., CT047-HNAE) (human) (UniProt Q16552); test: Octet (BLI), biotinylated IL17A/F, antibody 0.90-13.9 nM
[2] = biological target: recombinant human IL17A protein (human) (UniProt Q16552); test: cell-based or functional assay
[3] = biological target: recombinant human IL17A/F dimer protein (SinoBiological, Inc., CT047-HNAE) (human) (UniProt Q16552); test: cell-based or functional assay
[4] = biological target: recombinant human IL17A protein (human) (UniProt Q16552); test: Octet (BLI), biotinylated IL17A, antibody 0.90-13.9 nM
[5] = biological target: recombinant human IL17A/F dimer protein (SinoBiological, Inc., CT047-HNAE) (human) (UniProt Q16552); test: ELISA: IL17A/F coated at different concentrations, antibody fixed at 2 µg/mL, anti-human IgG Fc/HRP; EC50 is on the antigen concentration
[6] = biological target: recombinant human IL17A protein (human) (UniProt Q16552); test: ELISA: IL17A coated at different concentrations, antibody fixed at 2 µg/mL, anti-human IgG Fc/HRP; EC50 is on the antigen concentration
[7] = biological target: recombinant human IL17A/F dimer protein (SinoBiological, Inc., CT047-HNAE) (human) (UniProt Q16552); test: competition ELISA: IL17RA-Fc coated (competitor), IL17A/F-Biotin at 0.8 µg/mL, antibody varied
[8] = biological target: recombinant human IL17A protein (human) (UniProt Q16552); test: competition ELISA: IL17A coated, competitor IL17RA-His-biotin at 2 µg/mL, antibody varied

recombinant human IL17A protein (human), sequence (Q16552 24-155 limits assumed): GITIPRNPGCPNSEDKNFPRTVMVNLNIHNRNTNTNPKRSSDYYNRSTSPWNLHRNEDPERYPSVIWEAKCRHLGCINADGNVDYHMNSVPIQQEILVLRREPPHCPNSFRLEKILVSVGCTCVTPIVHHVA
recombinant human IL17A/F dimer protein (SinoBiological, Inc., CT047-HNAE) (human), sequence (Q16552 24-155 limits assumed, chain 1 of 2): as the sequence (Q16552 24-155 limits assumed) above
recombinant human IL17A/F dimer protein (SinoBiological, Inc., CT047-HNAE) (human), sequence (Q96PD4 31-163 limits assumed, chain 2 of 2, further chain): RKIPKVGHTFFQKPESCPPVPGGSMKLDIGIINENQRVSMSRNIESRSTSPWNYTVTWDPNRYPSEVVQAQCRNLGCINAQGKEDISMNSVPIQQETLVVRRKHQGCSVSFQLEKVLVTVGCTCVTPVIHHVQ

Kd [1]: 1.1 nM | EC50 (µg/mL), blocking IL17A-induced IL6 secretion of HFF cells [2]: 0.22 µg/mL | Maximum neutralization rate (%), IL17A-induced IL6 secretion of HFF cells [2]: 51.6% | EC50 (µg/mL), blocking IL17A/F-induced IL6 secretion of HFF cells [3]: 2.25 µg/mL | Maximum neutralization rate (%), IL17A/F-induced IL6 secretion of HFF cells [3]: 79.5% | Kd [4]: 0.0955 nM
Substance: COSENTYX (Norvatis, SHM12) (antibody)

EC50 [5]: 0.0639 µg/mL | EC50 [6]: 0.0748 µg/mL
Substance: COSENTYX biosimilar (SinoCelltech Co., Ltd.) (antibody)

maximum inhibition rate [7]: 75% | EC50 of blocking IL17A-induced IL-6 secretion of HFF cells [2]: 0.247 µg/mL | maximum inhibition rate of IL17A-induced IL-6 secretion of HFF cells [2]: 97.3%
Substance: Taltz biosimilar (SinoCelltech Co., Ltd.) (antibody)

IC50 [8]: 0.5 µg/mL | maximum inhibition rate [8]: 89.5% | EC50 (µg/mL), blocking IL17A-induced IL6 secretion of HFF cells [2]: 0.19 µg/mL | Maximum neutralization rate (%), IL17A-induced IL6 secretion of HFF cells [2]: 95.9% | EC50 (µg/mL), blocking IL17A/F-induced IL6 secretion of HFF cells [3]: 1.1 µg/mL | Maximum neutralization rate (%), IL17A/F-induced IL6 secretion of HFF cells [3]: 76.3%
Substance: Taltz (Eli Lilly) (antibody)

Reference: patent publication US20220144936A1
